# Assay: soluble fraction after stress (log2 fold change); higher = more stays soluble; pooled small domains, quantitative proteomics
# Conditions: stress: 75 degC
# 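Also: 20 min heating vs room temperature control held 20 min.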
row,Sequence,soluble fraction (log2)
1,HMNQGKLIEMLQEMKEIAHSQNNYLTKNEIANYLGDTVLSKEQLQAVYHYLGENHIEVEGYVYIP,≥ 1.04
2,HMNQIATSTQAIITTLSFLNTSSIFKLPVGDTASRPTGVSPGTLRFNSQEDSAEIYKADDGTGSAGWTEVA,-0.296
3,HMNQIDEATAATITTLNFLNTNSEFKIPVGDTATRPGTPAIGMMRFNSENDKAEIYVADFDGDGNPGWINL,-0.0556
4,HMNQILDFTREVKNLPEQDKIKIVEALWSIIYSNKDADIYETNLMRRLAGLLYIDNKTMGDIKEKIKQNL,-0.906
5,HMNQNHFLDSVVEFAKDEASRAFFQKAVKKLGEGLVEEAMGEVKMREADGSVNSRAPYFIALLENWMENR,-0.0208
6,HMNQNIYVPKLEGLQIEEASSILKSKGLNIEITDSIFRKDAVPGAIIEQTPKPNSRVKTGRNIYVSIYSK,0.385
7,HMNQSEMIGSRLKEERLQQKLTLKQLSEKVGLSIGYLSQVERGYGTLSLSALKKLSSALGLEMSTFFD,-2.43
8,HMNQTGQYENAAKRFNQLITIDSSDKRAYLQLGISNYNLGNKEKADSLFNIIRNSKDKLLIEELDNFLT,-0.102
9,HMNQYALTDREKNVLGLLVDGLSYKMIADKENISFHTVNAHVRKIYEKLHVHSLAEAVSKALKENL,-2.07
10,HMNQYRKLDGDVQNQIIYILSEYPKLPATIVYQRLLDTNTIVKKDVSLSTVNRFVQKYKDSKGIT,-1.19
11,HMNREDYIKAIFKIAEREGEASNQRIADSLGVSRASASEMVKKLIQEGFVVAEGRQLSLSAEGERIA,-0.185
12,HMNREEKKALTRRQIIDVATRLFRQHGIHNTDLKTIATEAGVSVVTFYKYFDSKEALIGTIAAEQ,-0.804
13,HMNRNHVFDSNGPDLRLRGTAQQLFEKYLQLGRDATSGGDRVMAEGYFQHAEHYFRILNAMNQAAMQH,-1.15
14,HMNRPYETLFTGLTTDEASAIVGKLEEYGAADYKIEGDTIKVPAAQEPDLKAKLLLDGYPKS,0.231
15,HMNRTEYMAALRRALSVLPEEERASALRYYEEYFDDAGPENEEKVIADLGAPEKVAGQILADYRE,0.0934
16,HMNSDQMKEHLDNLVDMAKKNDNTLIDTEIVNYFVGKPDIELNTDMMTKIFDYLDEHHVAVLS,0.146
17,HMNSEFPFNGGRIVDNVPANRLQIFFDEKPDADVRTRLKQNGFRWAPNSGAWQSYRHGYTLDWARREFNA,-0.136
18,HMNSEPKTKLQEIAQERGLAAPVYETTHTGPDHDRIFSASVTVGDVVAAGEARSRKGAESEAAIAAIKALG,0.195
19,HMNSFGWESLIDKEGIADTDLHPSGWVRIDDRRIFVVSEGDFIDKGSGVTVLSVDGNRVVVRELI,-1.38
20,HMNSHLEEGRHGLQIGDPGIVRARIESDPEGETDMPVVVIDGRNISWNEFGRMVATYTGFQFKLEM,-0.629
21,HMNSHQNELDNALTEAHTASRRLLEGTDEYLDLSSQPAYIRRLQHLLAQKYNLGSLSSGVEPNRHIRLLQ,-0.265
22,HMNSIDIENELVKIIEKNGQPMSFDDLVFKLDSLYSTRYKFAKGYIRTIILNSNRIASIGKTSTYSLYKWN,-3.12
23,HMNSKKETLLSYLYNHSTWSSRNDLSNFLNVSTRQVTNYINEINKNETIVLSSNKGYKINPKFIGKN,-1.61
24,HMNSKMTYSDLIGNIEQGNVSSVELASDGKSATVTLTDNSQKQVNIPSLDSFVTYVQDHIKAGTLSVEE,0.344

row,Sequence,soluble fraction (log2)
1,HMNSKSDDELLSKTTSLLIHAAKIDENYTDKEKEIIKKTLIQLGVKESKADQIMLTAEINEE,≥ 1.04
2,HMNSKYILLQVSDIPKTSLVLERQFGVTEYSVQDEHTLRIYDTSLDMAAVNKALVVQDIAVISSQL,-1.69
3,HMNSLFPLSLKYLREQANITQAELAQKLDVTQQAVGRWERGQTSPDYETLKRLSVLFNVSVDYLLGV,-1.1
4,HMNSNIIKTINDELSIRKGKYGPYIMYKTKKMKRPKFKSIGDNTPDEFLADKGSISEIILWIN,-0.527
5,HMNSSHRLIGLDPGLRVTGWGIVDAIGTKLVHVANGSVKSQQNAPLATRLLELENGLEEVFDNWQPDFA,0.034
6,HMNSVLPQEVKSSLNDFFTKYAPGSIAQKLINHASFTGGKVVVTGVELTQTQADDLKKAFKDKFF,-0.00219
7,HMNSVTLEHIVYDFRVFNMLKGSGINDIDELIKAAEDGRLFKIIGSNLTYKRIKKSAAEFGVILPDKPG,-2.25
8,HMNSVYTPDPKELAKAIKIVTAAREAEQKGQGVIAVDGRMVDAPVVSQALRILELARLAGMEVSE,0.0743
9,HMNTAIPIAIDQLRIGMYIQLGLNWMSHPFPVSSFRIASESQIEILRGLGLAEVRYVPAKSDPVP,-3.26
10,HMNTDEYEQKRGEILDAAQRLIYTKGYERMSIQDILDELKISKGAFYHYFDSKQSLLEALTARMMTE,-0.44
11,HMNTDIHRLLDEAFVRVDMTPDAQHLKEEIRANLVARVDELEASGVPSADAARRAIAELGDVRELL,0.291
12,HMNTFDLSKLEEIILASRDKAMKTKEFTELDNLKNLFITAGLDVQMSKNGIKLIKGPKFNSSLLEDF,-0.878
13,HMNTIIIDILPKGLSIAGNQTEPKSLIQQLLMARRADPAQPILLRPAIAVPVQNVVELIDRLTAAGI,-0.306
14,HMNTISEADAKRIALERAGLTAADYVKVDYDQDDNEYEVEMRSGNTEYEVKISGSTGAVLEYDSETD,-0.358
15,HMNTISTLEITTKKDIRILDESELLKSKSSKNNIFNYLLASGDFNLLKDKLNEIDEFSDEIISYQLN,-0.788
16,HMNTKQRTAVMRILKQSSDPVSADDVFAALKDEYPSLALSTVYRNLERFADESMVKKDVWSDGIVRYSLAD,-0.21
17,HMNTLGTNIAKLRESQKLTQEELGKLSGVSRVSIYKIETGQSTPRDTTLQNIAEALHTTPSALRS,0.0781
18,HMNTLLYAPKVSPNPFTPNADGINDVVNISYKLLRVISAVPISVEVFDLSGRLIKTLYSGVDPLGEY,0.194
19,HMNTLPASVQPKKGRLYAVIQTKENGKSKPVWRSLGLPEGSNKSKVNKAFREVVKQFEEEYAERLAR,-0.181
20,HMNTLPTDELMKYGIINEDLSFSKKLNADDIQKFLQGYTIVADNDKNRATFQLTENNTKLKVIFLER,-0.44
21,HMNTLRFPEGTPEKDRMSIILASYNSGIGHVNDARRLARLNGEDPNSWEVVARYLQLKAQPEYYESEAVK,-0.204
22,HMNTPAENFDKAVEKYKSTNSATEKDAAFKVIEDEWIKLSDEEKKERQDEYDSIFESEGDRV,0.0843
23,HMNTQGWEIFEGRITTADTDLNPSGWIRIDGQRIFVISDAGFIDKGKEVSILSVDGNRVLVRK,-0.646
24,HMNTSMIEHMDKSTFIRFVFTNPVTHDQAVAKLMEKHMWFSTEEKAEAEIDKLLNKTNSLIESGGKLTW,0.0867

row,Sequence,soluble fraction (log2)
1,HMNTTLQLDTILRLEKNAHLLENFVRAGFTDSELGKLTDADLLQIGVPKIGDRRRLLAALAERAH,-0.904
2,HMNTVSPAVSAQLRQELGGELNNANFQQLQQYLQAGQRDEAIVYLTSLGIESPRAVSIVNNAMDQIG,0.494
3,HMNVDIVEITKNSSPNQISKVIDIGAIQIVEDLMSFGIMKAIDTPLEDSEIEQLLEKYNLIVDLIE,-2.01
4,HMNVDSIPGKSGIVTQGIDNLKAMGRVTVNGMEWTARSKDGSLIEEGKVVRVYGVEGVKLIVEED,0.0811
5,HMNVDSLPGEKAVVIKTIDNLRGTGQAVVNGLEWSAKSKDETIIDEGKVVRIVAVEGVKLVVEEE,0.0298
6,HMNVEALIGREGRVTDKIEANGYGRVKVDGDSWKAKSANGAEIRQNTDVRILSIDSVIITVEP,-0.766
7,HMNVESLVGKQVIVSETIDNLKATGQVKVNGLEWTARAADETDIIPQGTEVTINEVSGVKLIVSR,0.0398
8,HMNVESMVGKQGKVVVEIDNISAKGMIKVDGMEWTARSVDGEIIPKDSLVAVVSVEGVKAMVRKAE,-0.106
9,HMNVGKRLKSLREKYKFSLEEVAKKIKSSAGAISRYENNERKINSESLIRLSNLYNVSPEYILYG,-0.621
10,HMNVKQALLELMQRKPELTGSAIARAIGYSPAVISQYLKDGYPGDVVKLTTLIGDFIRRIDEKERS,-0.526
11,HMNVKVYATIDGDNFKVSGLKPGSNVRVYSSNGSAVFEKKAGDSEMIIPAGAWTKGIYVISADDQSIKVT,-0.0855
12,HMNVLGQTAIVRSLRLDATFGEVLLADGGAGLIFKARTHGDETFKKGDRVVLLEYLKDQHAYRVISETDFL,-2.45
13,HMNVLLGISELSHATGVTPAQLRYWVSQGYIKNYGSNKKNKFSLETVFMVRSIKIFQNQGYTLSASAKRAA,-1.38
14,HMNVNFVQANLANLPNIQAIYQKGNEMLNDMKRGEAREIDEAYSRVDNGVGTEKDFKVLLSFRDKIIAAMQ,-0.112
15,HMNVNSMIGKEGRVIEDIDNFNETGRIIVDGMEWTARAVNEQSITSGQKVVIREIQGVKAMVVPM,0.115
16,HMNVNTNTILKSLMETYPDSTVFKKAEIVSIANSLGFKKSDYSPLTSTDNRTDVRGQYDLSAVIIPMRESN,-0.14
17,HMNVPYEMVTQNGEVFYKYKVQPGEGVFAVSRTFSVSVAEILRVNPEANKGLKNGQVLLIPVPKDMIA,-1.71
18,HMNVVGAKGRIIKISSSEEKMAVAEIEGHGEWNIRTNSEIELFVGKSVEVIEMKGNYLLVNQI,-3.01
19,HMNVWESVDLRQEQHEAKRRLILKQAALLFADRGFHETTIDQIAEALNVTKPTIYYYIESKEDLLYQVA,-0.135
20,HMNWQLITDPKELRELVQKTIADNEAGTSRLREGDMGPLEFLTGIIMKKTRGLADPTMVKALLKEELNI,-0.0208
21,HMNYEFLEKIGFSSNEAKVYGTLIKHKVLNGYEIAKLSGVARSLVYEVINRLVAKGAVIRIDGEPNFYKP,-2.2
22,HMNYHDTLSYLMDAFGGADNLQKLLGVGPSALSNYRRREHLPLNQARKLSNIAPEFGFNLDPYTLKISVID,-1.62
